The values that follow are results of earlier work, collected in PMC10522771.

The term pKd denotes the negative decadic logarithm of the Kd, by convention in mol/L.

pKd: −log10 of the molar value.

The target in data set [1] is CBP TAZ1 (Homo sapiens) (UniProt Q92793).
Data set [2] concerns the target CBP TAZ2 (Homo sapiens) (UniProt Q92793).

Chain of MITF N-terminal TAD (O75030 224-295): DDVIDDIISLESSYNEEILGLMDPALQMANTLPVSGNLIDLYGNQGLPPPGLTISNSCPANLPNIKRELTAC
Chain of CBP TAZ1 (Homo sapiens) (Q92793 340-439): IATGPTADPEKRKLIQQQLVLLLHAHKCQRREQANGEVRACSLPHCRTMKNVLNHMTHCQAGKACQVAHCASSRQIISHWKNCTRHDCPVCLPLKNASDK
Chain of CBP TAZ2 (Homo sapiens) (Q92793 1764-1855): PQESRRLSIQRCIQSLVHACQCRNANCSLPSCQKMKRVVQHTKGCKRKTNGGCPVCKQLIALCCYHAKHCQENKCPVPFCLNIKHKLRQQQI

Regarding “MITF N-terminal TAD (from UniProt O75030)”, the negative logarithm of the Kd (pKd) in data set [1] was 5.17; in data set [2], 5.92.
